Data set [1] in a line: Time constant of plasma clearance. The data set is classed as in vivo, SCID mice. As to conditions: i.v. bolus, arterial blood within 30 min.
For data set [2] the following is noted: Data from Yuan et al. (1995); cited from earlier work.
For data set [3] the following is noted: Data from Yuan et al. (1995); cited from earlier work. The source holds these as a separate data set.
Data set [4] is described as follows: Isoelectric focusing of charge-modified proteins. The class given is physicochemical. How it is done:
Isoelectric points of the proteins were determined by isoelectric focusing using polyacrylamide gel slabs on a vertical electrofocusing apparatus. pl was quantified by comparison with protein standards (Bio-Rad) after Coomassie Blue staining of the gels. The molecular weights of the proteins were analyzed by SDS-PAGE (Mini-Protean II; Bio-Rad) with and without reducing agent P-mercaptoethanol in the sample buffer.

For data set [5] the following is noted: normal tissues, Adamson et al. (1988); cited from earlier work.

Read-outs that look alike come from different tables or passages of the source.

For the substance “Anionized BSA: rhodamine-labeled bovine serum albumin anionized by succinylation”, the “Median K, time constant of concentration decay in the plasma” value (shortened to “Median K, time constant”) in data set [1] is listed as 40.8 100s.
As to “Native BSA: fluorescently labeled native bovine serum albumin, data from Yuan et al. (1995)”, the “Median K, time constant” value in data set [2] is given as 80.5 100s. The “pI (range)” value in data set [3] was 4.5.
On to “Cationized BSA: rhodamine-labeled bovine serum albumin cationized by conjugation with hexamethylenediamine”, for which the “pI (range)” value in data set [4] is given as 8.6-9.1. Besides, the “Median K, time constant” value in data set [1] is reported as 12.7 100s.
As for “(x-lactalbumin: protein, MW=14,176; net charge −10 (Adamson et al. 1988)”, in data set [5], the “microvascular permeability relative to ribonuclease” value is on record as “approximately 50%”.

(Values after patent US20020034537A1, “Cationic diagnostic, imaging and therapeutic agents associated with activated vascular sites” (priority 2000, published 2002).)
